Experimental data taken from article PMC3882317 (Cell reports, 2013).

Assays:
Flag-tagged Larp7 = target: T1, Flag-tagged Larp7 (UniProt Q4G0J3 1-582); assay: pull-down
T1 sequence (looked up): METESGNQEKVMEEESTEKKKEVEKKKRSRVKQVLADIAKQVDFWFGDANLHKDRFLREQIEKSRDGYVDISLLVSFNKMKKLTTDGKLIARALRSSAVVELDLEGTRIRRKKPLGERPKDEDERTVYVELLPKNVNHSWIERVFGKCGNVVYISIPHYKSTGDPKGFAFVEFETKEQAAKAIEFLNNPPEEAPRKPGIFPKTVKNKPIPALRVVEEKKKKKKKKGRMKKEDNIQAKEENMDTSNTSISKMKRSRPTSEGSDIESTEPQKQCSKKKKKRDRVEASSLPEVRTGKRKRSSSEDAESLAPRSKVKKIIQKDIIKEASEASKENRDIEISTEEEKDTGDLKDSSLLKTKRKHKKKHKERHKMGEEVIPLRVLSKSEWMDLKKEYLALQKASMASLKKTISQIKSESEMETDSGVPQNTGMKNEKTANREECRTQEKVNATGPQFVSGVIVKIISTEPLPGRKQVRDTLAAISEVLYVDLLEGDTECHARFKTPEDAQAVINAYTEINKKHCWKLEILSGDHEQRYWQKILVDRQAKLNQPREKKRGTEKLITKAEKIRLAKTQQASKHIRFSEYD

Flag-tagged MePCE = target: T2, Flag-tagged MePCE (UniProt Q7L2J0 1-689); assay: pull-down
T2 sequence (looked up): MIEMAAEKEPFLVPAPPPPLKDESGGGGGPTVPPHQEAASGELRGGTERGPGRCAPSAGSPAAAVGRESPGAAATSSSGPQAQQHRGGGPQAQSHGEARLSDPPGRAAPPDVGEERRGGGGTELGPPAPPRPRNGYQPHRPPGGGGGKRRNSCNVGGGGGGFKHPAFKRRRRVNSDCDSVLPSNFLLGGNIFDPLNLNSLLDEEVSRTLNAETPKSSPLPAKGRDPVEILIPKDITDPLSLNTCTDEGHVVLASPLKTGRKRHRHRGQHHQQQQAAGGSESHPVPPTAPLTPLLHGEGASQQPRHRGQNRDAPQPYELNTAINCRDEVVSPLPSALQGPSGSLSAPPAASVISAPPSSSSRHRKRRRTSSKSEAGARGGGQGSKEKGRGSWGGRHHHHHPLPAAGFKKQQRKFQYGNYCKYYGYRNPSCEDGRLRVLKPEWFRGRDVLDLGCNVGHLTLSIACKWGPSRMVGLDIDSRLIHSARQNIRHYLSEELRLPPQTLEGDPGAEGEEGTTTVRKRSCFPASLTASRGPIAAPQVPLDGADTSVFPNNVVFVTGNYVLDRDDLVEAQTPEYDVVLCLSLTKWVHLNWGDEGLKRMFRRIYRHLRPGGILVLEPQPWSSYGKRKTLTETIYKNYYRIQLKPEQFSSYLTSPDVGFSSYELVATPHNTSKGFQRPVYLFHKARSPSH

B1: Strep-tagged PPM1G (enzyme, UniProt O15355 1-546, looked up)
chain: MGAYLSQPNTVKCSGDGVGAPRLPLPYGFSAMQGWRVSMEDAHNCIPELDSETAMFSVYDGHGGEEVALYCAKYLPDIIKDQKAYKEGKLQKALEDAFLAIDAKLTTEEVIKELAQIAGRPTEDEDEKEKVADEDDVDNEEAALLHEEATMTIEELLTRYGQNCHKGPPHSKSGGGTGEEPGSQGLNGEAGPEDSTRETPSQENGPTAKAYTGFSSNSERGTEAGQVGEPGIPTGEAGPSCSSASDKLPRVAKSKFFEDSEDESDEAEEEEEDSEECSEEEDGYSSEEAENEEDEDDTEEAEEDDEEEEEEMMVPGMEGKEEPGSDSGTTAVVALIRGKQLIVANAGDSRCVVSEAGKALDMSYDHKPEDEVELARIKNAGGKVTMDGRVNGGLNLSRAIGDHFYKRNKNLPPEEQMISALPDIKVLTLTDDHEFMVIACDGIWNVMSSQEVVDFIQSKISQRDENGELRLLSSIVEELLDQCLAPDTSGDGTGCDNMTCIIICFKPRNTAELQPESGKRKLEEVLSTEGAEENGNSDKKKKAKRD
Flag-tagged Larp7
  binding result: binds
Flag-tagged MePCE
  binding result: binds
